Results published in article PMC10967632, “Anti-CD99 Antibody Therapy Triggers Macrophage-Dependent Ewing Cell Death In Vitro and Myeloid Cell Recruitment In Vivo” (Antibodies, 2024).

B1: soluble human CD99 (coated on the ELISA plate) (natural protein, UniProt P14209 23-122, looked up)
chain: DGGFDLSDALPDNENKKPTAIPKKPSAGDDFDLGDAVVDGENDDPRPPNPPKPMPNPNPNHPSSSGSFSDADLADGVSGGEGKGGSDGGGSHRKEGEEAD
notes: human CD99, soluble; May be the same CD99-Fc (G&P Biosciences) as m6
B2: NOA3, anti-CD99 monoclonal antibody (IgG1) (antibody, V domains shown)
VH: EVQLVQSGAEVKKPGESLKIACKGSGYSFSKYWIGWVRQMPGKGLEWMGIIYPGDSDTRYSPSFQGQVTISVDTSISTAYLQWSSLKASDTAIYYCARHLRNFGDAFDIWGQGTTVTVSS
VL: SYELTQPPSVSVSPGQTARITCSGDALPKQYAYWYQQKPGQSPVLVIYQDSKRPSGIPERFSGSNSGNTATLTISGTQAMDEADYYCQAWDSSTAFGGGTKLTVL
notes: constant region IgG1; IgG1; isolated by phage display

Legend:
[1] = target: T1, Human His-tagged PILRα, extracellular domain (human, UniProt Q9UKJ1 20-197); assay: ELISA; plate coated with 2 µg/mL human CD99, PILRα at 0.25 to 5 µg/mL, detected with an anti-PILRα antibody and HRP-bound secondary; conditions: both partners purified
T1 construct: PILRα, human, extracellular domain; Band at 55 kDa on SDS-PAGE; also called human PILRα; source: Expi293F, transfected (pcDNA3.4), purified from the supernatant (HisPur Ni-NTA column)
T1 sequence (Q9UKJ1 20-197): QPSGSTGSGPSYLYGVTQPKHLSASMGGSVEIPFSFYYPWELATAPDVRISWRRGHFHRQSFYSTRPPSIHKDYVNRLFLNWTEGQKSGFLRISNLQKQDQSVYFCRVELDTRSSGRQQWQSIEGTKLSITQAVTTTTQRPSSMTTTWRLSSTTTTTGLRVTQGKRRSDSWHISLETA

[2] = target: T2, CD99 (or MIC2), 32 kDa type I membrane glycoprotein, on cells (Homo sapiens, UniProt P14209); assay: flow cytometry on cells; Ewing sarcoma cells incubated with anti-CD99 IgG1 (2 µg/mL; NOA1 10 µg/mL; NOA2 also titrated) for one hour at 4 °C, then FITC-conjugated mouse anti-human IgG; CD99-negative Kelly neuroblastoma cells as negative control; conditions: one partner purified
T2 construct: CD99 (MIC2), human, endogenous on the cell surface; also called Ewing CD99; macrophage CD99; source: endogenous, on human Ewing sarcoma cell lines (A673, TC32, CADO-ES1, TC71, TTC466); endogenous, on monocytes derived from human PBMCs

| Binder | binding result [1] | binding result [2] |
| --- | --- | --- |
| B1 | binds | – |
| B2 | – | binds |
